Results from publication PMC5871871 (Autophagy, 2013).
Like-named read-outs stand apart in the source and are kept apart here.

Legend:
[1] = biological target: the molecule itself; experiment: negative-stain single-particle EM
[2] = biological target: the molecule itself; experiment: negative-stain single-particle EM; remark: listed apart in the source

B1: Atg17 (recombinant, His-MBP tag removed by TEV), in the untagged Atg17-Atg31-Atg29 complex (natural protein, S. cerevisiae, UniProt Q06410 1-417, looked up)
chain: MNEADVTKFVNNARKTLTDAQLLCSSANLRIVDIKKKLSSWQLSISKLNFLIVGLRQQGKFLYTILKEGIGTKLIQKQWNQAVLVVLVDEMKYWQYEITSKVQRLDGIVNELSISEKDDTDPSKLGDYISRDNVNLLNDKLKEVPVIERQIENIKLQYENMVRKVNKELIDTKLTDVTQKFQSKFGIDNLMETNVAEQFSRELTDLEKDLAEIMNSLTQHFDKTLLLQDKKIDNDEREELFKVVQGDDKELYNIFKTLHEVIDDVDKTILNLGQFLQAKIKEKTELHSEVSEIINDFNRNLEYLLIFKDISNLIDSFKNSCTQDIQTTKELCEFYDNFEESYGNLVLEAKRRKDVANRMKTILKDCEKQLQNLDAQDQEERQNFIAENGTYLPETIWPGKIDDFSSLYTLNYNVKNP
stoichiometry N [1]: 2

B2: His-MBP-tagged Atg17 (natural protein, S. cerevisiae, UniProt Q06410 1-417, looked up)
chain: B1 chain
stoichiometry N [2]: 2
